± gives the standard error. Variants at the floor of the assay were thinned out.
B1: glmS ribozyme (parent)
chain: AUAAAAGCGCCAGAACUACAGAAAUGUAGUUGACGAGGAGGAGGUUUAUCGAAUUUUCGGCGGAUGCCUCCAAA

Experiments:
Details in all cases: with glucosamine-6-phosphate
[1] = variants of: B1; experiment: self-cleavage kobs at 640 uM GlcN6P; higher = faster cleavage; RNA array
Summary of the method: (§1)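 A hybridised Cy3 probe tracked barcoded ribozyme variants, transcribed in situ by E. coli RNA polymerase on sequenced MiSeq chips, at 37 °C. The variants received 40 μM to 10 mM glucosamine-6-phosphate in HEPES/KCl/Mg(OAc)2 buffer. kobs came from decay fits and kcat and KM from weighted Michaelis–Menten fits.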

[2] = variants of: B1; experiment: self-cleavage kobs at 2500 uM GlcN6P; higher = faster cleavage; RNA array
Summary of the method: as §1

[3] = variants of: B1; experiment: self-cleavage kobs at 10000 uM GlcN6P; higher = faster cleavage; RNA array
Summary of the method: as §1

Row | Variant | self-cleavage kobs at 640 uM GlcN6P [1] | self-cleavage kobs at 2500 uM GlcN6P [2] | self-cleavage kobs at 10000 uM GlcN6P [3]
1 | AUAAAAGUGCCAGAACUACAGAAAUGUAGGUGACGAGGAGGAGGUUUAUCGAAUCUUCGGCGGAUGCCUCCAAA [C8U U30G U55C] | < 1e-05 s⁻¹ | < 1e-05 s⁻¹ | 
2 | AUAAAAGUGCCAGAAAUACAGAAAUGUAGUUGACCUGGAGGAGGUUUAUCGAAUUUUCGGCGGAUGCCUCGAAA [C8U C16A G35C A36U C71G] | < 1e-05 s⁻¹ | < 1e-05 s⁻¹ | 
3 | AUAAAAGUGCCAGAACUACAGAAAUGUAGUUGACGAGGAGGAGGUUUAUCGAAUUGUCGGCGAAUGCCUCCAAA [C8U U56G G63A] | < 1e-05 s⁻¹ |  | 
4 | AUAAAAGUGCCAGAACUACAGAAAUGUAGUUGAUGAGGAGGUGGUUUAUCGAAUUUUCGGCGGAAGGCUCCAAA [C8U C34U A42U U65A C67G] | 0.000104 ± 4.1e-05 s⁻¹ | 5.58e-05 ± 2.1e-05 s⁻¹ | 
5 | AUAAAAGGGCCAGAACUACAGAAAUGUACUUGACGAGGAGGGGGUUUAUCCAAUUUUGAGCGGAUGCCUCCAAA [C8G G29C A42G G51C C58G G59A] | < 1e-05 s⁻¹ |  | 
6 | AUAAAAGUACCAGAACUACAGAAAUGUAUUUGACGAGGAGGAGGUUUAUCGAAUUUUUGGCGGAUGCCUCCAAA [C8U G9A G29U C58U] | < 1e-05 s⁻¹ | < 1e-05 s⁻¹ | 
7 | AUAAAAGGGCCAGAACUACAGAAAUGUAGUUUACGAGUAGGAGAUUUAUCGAAUUUUCGGCGGAUGCCUCCAAA [C8G G32U G38U G44A] | < 1e-05 s⁻¹ |  | 
8 | AUAAAAGUGCCAAAACUACAGAAAUGUAGUUGACAAGAAGGAGGUUUAUCGAAUUUUCGGCGAAUGCUUCCAAA [C8U G13A G35A G38A G63A C68U] | 0.001 ± 0.00031 s⁻¹ |  | 
9 | AUAAAAGCAACAGAACUACAGAAAUGUAGCUGACGAGGAGGAGGUUUAUCGAAUUUUCGGCGGAUGCCUCCAAA [G9A C10A U30C] | < 1e-05 s⁻¹ | < 1e-05 s⁻¹ | 
10 | AUAAAAGGCCCAGAACUACAGAAAUGUAGUUGACGAGGCGGAGGUUUAUCGAAUUUUCGGCGGAUGCCUCCAAA [C8G G9C A39C] | < 1e-05 s⁻¹ | < 1e-05 s⁻¹ | 
11 | AUAAAAGUGCCAGAAAUACAGAAAUGUAGUUGACGAGGAGGAGGUUUAUCGAAUUUUCGGCUGAUGCCUCCAAA [C8U C16A G62U] | < 1e-05 s⁻¹ | < 1e-05 s⁻¹ | 
12 | AUAAAAGUGCCAGAACUACAGAAAUGUAGUUGACCAGGAGGAGGUUUAUCGAAUUUUCGGCGGAUGCUUCCAAA [C8U G35C C68U] | < 1e-05 s⁻¹ |  | 
13 | AUAAAAGUGUUAGAACUACAGAAAUGUAGUUGACGAGGAGGAGGUUUAUCCAAUUUUCGGCGGAUGCCUCCAAA [C8U C10U C11U G51C] | < 1e-05 s⁻¹ |  | 
14 | AUAAAAGUGCAAGAACUACAGAAAUGUAGUUGACGAGGAGGAGGUUUAUCGAAUUUUCGGCGGAUGCCUCCAAA [C8U C11A] | < 1e-05 s⁻¹ |  | < 1e-05 s⁻¹
15 | AUAAAAGGGCCAGAACUACAGAAAUGUAGUUGACAAGGAGGAGCUUUAUCGAAUUUUCGGCGGAUGCCUCCAAA [C8G G35A G44C] | < 1e-05 s⁻¹ |  | < 1e-05 s⁻¹
16 | AUAAAAGUGCCAGAACUACAGAAAUGUAGUUGCCGAGGACGAGGUUUAUCGAAUUUUCGGCAGAUGCCUUCAAA [C8U A33C G40C G62A C70U] | < 1e-05 s⁻¹ |  | 
17 | AUAAAAGUGCCACCACUACAGAAAUGUAGUUGACGAGGAGGAGGUUUAUCGAAUUUUCGGCGGAUGCCUCCAAA [C8U G13C A14C] | < 1e-05 s⁻¹ | < 1e-05 s⁻¹ | 
18 | AUAAAAGCACCAGAACUACAGAAAUGUAGUUGACGAGGAGGGGGUUUAUCGGAUUUUCGGCGGAUGCCUCCAAA [G9A A42G A52G] | < 1e-05 s⁻¹ |  | 
19 | AUAAAAGUGCCAGAACUACAGAAAUGUAGUUGUCGAGGAGGAGGUGUAUCGAGUAUUCGGCGGAUGCCUCCAAA [C8U A33U U46G A53G U55A] | < 1e-05 s⁻¹ | < 1e-05 s⁻¹ | 
20 | AUAAAAGUGCCAGAACUACAGAAAUGUAGUUGUCGAGGAGGAGGUUUAUCGAAUUUUCGUCGGAUGCCUCCAAA [C8U A33U G60U] | < 1e-05 s⁻¹ | < 1e-05 s⁻¹ | 
21 | AUAAAAGUGCCAGAAUUACAGAAAUGUAGUUGACGAGGAGGAGGUUUAUCGAAUUUUCGGCGGAUGCCUCAAAA [C8U C16U C71A] | < 1e-05 s⁻¹ |  | 
22 | AUAAAAGGGCCAGAACUACAGAAAUGUAGUUGACGAGUAGAAGGUGUAUCGAAUUUUCAGCGGAUGCCUCCAAA [C8G G38U G41A U46G G59A] | < 1e-05 s⁻¹ | < 1e-05 s⁻¹ | 
23 | AUAAAAGGGCCAGAACUACAGAAAUGUAGUUGACGAGGAGGAGGUUUAUCGAAUUUUUGGCGGAUGCCUCCAAA [C8G C58U] | < 1e-05 s⁻¹ | < 1e-05 s⁻¹ | < 1e-05 s⁻¹

Reference: the supplement of paper PMC7125110
